# From the Immune Epitope Database (IEDB)
# Biological target: HLA-A*02:01
# Assay: IEDB peptide-MHC binding, purified MHC/direct/fluorescence; filed as Kd, often an IC50 or EC50 that approximates it; ≥ and ≤ were set here for values at or beyond the usual limits of such assays
# Details: source organism: Human immunodeficiency virus 1
row,Sequence,Kd [nM]
1,SLFNAVVTL,10
2,SLFNTVATV,25
3,SLFNTVVTL,32
4,SLYNAVATL,45
5,SLYNAVVTL,10
6,SLYNLVAVL,724
7,SLYNTIAIL,500
8,SLYNTISVL,61
9,SLYNTITVL,88
10,SLYNTVSTL,181
11,SLYNTVVTL,20
12,SVYNTVATL,283
